For ten substances, retention time, RT [min] (retention time on the FcRn affinity column) and FcRn-affinity column retention time results are on record in patent US20190127457A1.

In experiment [1] the target is human neonatal Fc-receptor (FcRn) (human) (UniProt P55899). Nature of the experiment: FcRn affinity chromatography, symmetrically modified anti-HER2 antibody.
Experiment [2] shares this target. The experiment in a line: FcRn affinity chromatography.

Chain of human neonatal Fc-receptor (FcRn) (human) (P55899 24-297 limits assumed, chain 1 of 2): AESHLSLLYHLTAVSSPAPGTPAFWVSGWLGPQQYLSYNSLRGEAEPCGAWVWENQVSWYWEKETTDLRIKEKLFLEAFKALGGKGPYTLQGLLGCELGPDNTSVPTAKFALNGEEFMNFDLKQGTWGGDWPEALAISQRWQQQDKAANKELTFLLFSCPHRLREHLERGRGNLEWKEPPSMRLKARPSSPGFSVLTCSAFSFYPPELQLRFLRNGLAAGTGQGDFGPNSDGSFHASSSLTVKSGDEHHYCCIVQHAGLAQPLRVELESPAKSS
Chain of human neonatal Fc-receptor (FcRn) (human) (P61769 21-119 limits assumed, chain 2 of 2, further chain): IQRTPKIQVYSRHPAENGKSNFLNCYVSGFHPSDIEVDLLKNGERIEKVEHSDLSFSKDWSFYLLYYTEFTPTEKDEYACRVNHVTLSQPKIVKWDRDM

Turning to anti-HER2 antibody, E258H (symmetric), the retention time in experiment [1] turned out to be 45.6 min.

In experiment [2], “bispecific antibody (knobs-into-holes), first chain with I253A/H310A/H435A and second chain with H435A” returned an RT [min] (retention time on the FcRn affinity column) of 0 min. In turn, “bispecific antibody (knobs-into-holes), first chain with I253A/H310A/H435A and second chain with H310A” registered an RT [min] (retention time on the FcRn affinity column) in experiment [2] of 0 min.

In experiment [2], “IgG1 Fc-region with L234A/L235A/P329G and Y436A (symmetric)” registered a FcRn-affinity column retention time of 41.3 min. In turn, anti-HER2 antibody, R255D (symmetric) came in with a retention time in experiment [1] of 41.4 min. Substance “bispecific antibody (knobs-into-holes), first chain with I253A/H310A/H435A and second chain with I253A/H310A/H435A” showed an RT [min] (retention time on the FcRn affinity column) in experiment [2] of 0 min.

In experiment [1], anti-HER2 antibody, N434H (symmetric) displayed a retention time of 52 min.

With anti-HER2 antibody, K288E (symmetric), in experiment [1], the retention time stood at 45.2 min.

The substance anti-HER2 antibody, K290H (symmetric) displayed a retention time in experiment [1] of 46.2 min. In experiment [1], anti-HER2 antibody, L309H (symmetric) had a retention time of 45.5 min.
